This note sets out measurements from article doi:10.1101/2024.06.06.597810 (2024).

Substitutions are numbered along the chain they refer to. Names may count otherwise. Where no end group is shown, it is not given here.

T1: Biotin-labeled MHV stem helix peptide (MHV, also: biotin label, position not given here)
T1 chain: PDFKEELDKWFKNQ

B1: S2P6 UCA VH Y32Q/M48I double mutant Fab (Fab, V domains shown)
VH: QVQLVQSGAEVKKPGASVKVSCKASGYTFTSQYMHWVRQAPGQGLEWIGIINPSGGSTSYAQKFQGRVTMTRDTSTSTVYMELSSLRSEDTAVYYCARGSPKGAFDYWGQGTLVTVSS
VL: not shown
B2: S2P6 UCA VH Y32Q Fab (Fab, V domains shown)
VH: B1 VH with I48M
VL: not shown
B3: S2P6 UCA VH M48I Fab (Fab, V domains shown)
VH: B1 VH with Q32Y
VL: not shown
B4: S2P6 UCA VH M48I/S56H double mutant Fab (Fab, V domains shown)
VH: B1 VH with Q32Y, S57H
VL: not shown
B5: S2P6 UCA VH S56H Fab (Fab, V domains shown)
VH: B1 VH with Q32Y, I48M, S57H
VL: not shown
B6: S2P6 UCA VH Y32Q/M48I/S56H triple mutant Fab (Fab, V domains shown)
VH: B1 VH with S57H
VL: not shown

The target in this assay is T1, Biotin-labeled MHV stem helix peptide. As to the kind of experiment: BLI.
By Kd is commonly meant the constant that tells how readily two partners part at equilibrium. A high value points to lower affinity. B1 had a Kd of 1190 nM.
The same measure for B2: 2260 nM; for B3: 731 nM; for B4: 1300 nM.
In the case of B5, the Kd was 3760 nM.
For B6, the affinity, expressed as Kd, was 2230 nM.
